Test results: publication PMC11381367
One block for each substance: values may come before it.

Columns and labels:
[1] = target: H2AK119ub nucleosome (dichloroacetone-linked ubiquitin on histone H2A-K119, Xenopus laevis histones) (Xenopus laevis | not stated) (UniProt P06897); experiment: SPR; Biacore 8K; 5' biotinylated 185 bp nucleosome (about 200 RU) captured on streptavidin on a CM5 chip; RCC1 as analyte in 2-fold dilutions; HBS-EP+ (10 mM HEPES pH 7.4, 150 mM NaCl, 3 mM EDTA, 0.05% Tween-20); 1:1 steady-state affinity fit, two replicates
[2] = target: unmodified nucleosome (Xenopus laevis histones, Widom 601 DNA) (Xenopus laevis); experiment: as above
RCC1 = experiment: SPR; settings: EMSA: 20 mM HEPES pH 7.6, 50 mM NaCl, 5% sucrose, 1 mM DTT, 2.5 mM MgCl2, 0.1 mg/ml BSA, on ice 1 h, SPR: 10 mM HEPES pH 7.4, 150 mM NaCl, 3 mM EDTA, 0.05% …

Sequence of RCC1 (P18754 whole entry): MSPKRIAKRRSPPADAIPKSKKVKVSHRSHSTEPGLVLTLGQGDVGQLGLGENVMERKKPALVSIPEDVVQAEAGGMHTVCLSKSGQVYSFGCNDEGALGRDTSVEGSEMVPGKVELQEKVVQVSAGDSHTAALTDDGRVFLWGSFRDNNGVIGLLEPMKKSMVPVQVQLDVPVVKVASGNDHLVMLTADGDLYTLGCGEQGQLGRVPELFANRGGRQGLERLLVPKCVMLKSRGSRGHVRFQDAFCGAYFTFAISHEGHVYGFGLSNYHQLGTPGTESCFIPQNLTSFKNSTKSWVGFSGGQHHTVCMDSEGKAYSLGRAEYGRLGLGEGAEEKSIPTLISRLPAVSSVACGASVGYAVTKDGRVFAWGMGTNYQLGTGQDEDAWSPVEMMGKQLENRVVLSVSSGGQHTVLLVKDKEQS

Kd [1]: 540 nM | Kd [2]: 730 nM
Substance: RCC1 (from UniProt P18754 1-421) (natural protein)

Substance: H2AK119ub nucleosome, 185 bp 601 (SPR)
Kd (RCC1; histone H2AK119ub): 540 nM

Substance: H2BK120ub nucleosome, 185 bp 601 (SPR)
Kd (RCC1; histone H2BK120ub): > 10000 nM

Substance: unmodified nucleosome, 185 bp 601 (SPR)
Kd (RCC1; unmodified histones): 730 nM
